{"source": "patent US7939064B2", "about": "(priority 2006, dated 2011)", "molecules": {"B1": {"name": "tPA: tissue plasminogen activator, thrombolytic serine protease converting plasminogen to plasmin (protein, UniProt P00750 36-562, looked up)", "Tissue-type plasminogen …": "SYQVICRDEKTQMIYQQHQSWLRPVLRSNRVEYCWCNSGRAQCHSVPVKSCSEPRCFNGGTCQQALYFSDFVCQCPEGFAGKCCEIDTRATCYEDQGISYRGTWSTAESGAECTNWNSSALAQKPYSGRRPDAIRLGLGNHNYCRNPDRDSKPWCYVFKAGKYSSEFCSTPACSEGNSDCYFGNGSAYRGTHSLTESGASCLPWNSMILIGKVYTAQNPSAQALGLGKHNYCRNPDGDAKPWCHVLKNRRLTWEYCDVPSCSTCGLRQYSQPQFRIKGGLFADIASHPWQAAIFAKHRRSPGERFLCGGILISSCWILSAAHCFQERFPPHHLTVILGRTYRVVPGEEEQKFEVEKYIVHKEFDDDTYDNDIALLQLKSDSSRCAQESSVVRTVCLPPADLQLPDWTECELSGYGKHEALSPFYSERLKEAHVRLYPSSRCTSQHLLNRTVTDNMLCAGDTRSGGPQANLHDACQGDSGGPLVCLNDGRMTLVGIISWGLGCGQKDVPGVYTKVTNYLDWIRDNMRP"}, "B2": {"name": "NsPLA2 (protein)", "chain": "NLYQFKNMVQCTVPNRSWWHFADYGCYCGRGGSGTPVDDLDRCCQIHDNCYNEAEKISRCWPYFKTYSYECSQGTLTCKGGNNACAAAVCDCDRLAAICFAGAPYNDNNYNIDLKARCQ", "modifications": "Naja sputatrix"}}, "key": {"[1]": {"test_system": "transient cerebral focal ischemia (left middle cerebral artery occlusion)", "conditions": "rat, in vivo"}, "[2]": {"test_system": "neurons in striatum and cortex of ischemic brains", "experiment": "Haematoxylin and eosin histology of ischemic brain sections", "type": "in vivo, rat", "conditions": "NsPLA2 at 0 min post-occlusion", "description": "The ability of NsPLA2 to protect neurons from cell death was investigated. Paraffin-embedded rat brains were sectioned and stained with haematoxylin and eosin. […] Neurons appeared shrunken and nuclei were dysmorphic and pyknotic."}, "[3]": {"test_system": "gene expression in ischemic brain", "experiment": "Microarray gene expression analysis (RAE-230A GeneChips) of MCAo and MCAo+NsPLA2 brains", "type": "in vivo, rat", "description": "Cerebral ischemia is a powerful stimulus for the de novo expression of many gene systems and identification of genes differentially expressed in the ischemic and non-ischemic brain can help illuminate pathophysiology and provide therapeutic targets in ischemia. Analysis of gene expression can also aid in elucidating the role of various pathways or specific genes in the mechanism of action of neuroprotective agents. Consequently, the power of high-density oligonucleotide arrays was harnessed to generate global expression profiles of non-ischemic, ischemic and NsPLA2-treated brains. RNA isolated from the brains of sham-operated rats (sham-op; n=4), rats subjected to 60 min of MCAo (MCAo; n=4) and rats subjected to 60 min of MCAo but treated with 30 μg/200 g body weight NsPLA2 immediately post-occlusion (MCAo+NsPLA2; n=4) was pooled before microarray probe preparation and hybridization to minimize inter-individual variation. Expression analysis was carried out using GeneChips from the RAE-230A Array set, with each chip representing ˜15,900 genes and expressed sequence tags (ESTs). Genes whose expression changed by 1.7-fold or greater in at least one pairwise comparison (between sham-op and MCAo or between MCAo and MCAo+NsPLA2) were deemed significant.\nIn an attempt to understand the mechanisms by which NsPLA2 may confer neuroprotection, the gene expression profiles of MCAo and MCAo+NsPLA2 were compared. […] They are listed in Table 1 and include genes involved in cell growth and maintenance (retinol-binding protein, regulator of G-protein signalling 2, DNA topoisomerase, X transporter protein 3, hemoglobin &chain complex, nucleosome assembly protein 1-like, cyclin-dependent kinase inhibitor 1A and chloride intracellular channel 4), development (tropomyosin 4 and neurogenic differentiation 1), lipid metabolism (tissue inhibitor of metalloproteinase 1 and sulfotransferase family 1A), Ca^2+-binding (calpactin 1 heavy chain, calgranulin A, protein disulfide isomeraserelated protein and S-100 related protein), maintenance of cytoskeletal structure (tropomyosin 1 and moesin), defense response (CD44 antigen), regulation of blood pressure (angiotensinogen), cell-cell signaling (thyrotropin releasing hormone), antioxidant activity (glutathione-S-transferase), proteolysis (MMP-9), cell adhesion (l-gicerin) and transcriptional regulation (POU domain)."}, "[4]": {"test_system": "neurons in striatum and cortex of ischemic brains", "conditions": "rat, in vivo"}, "TNF-a": {"test_system": "TNF-a", "conditions": "rat, in vivo"}, "[5]": {"test_system": "Bcl-2, Bcl-XL and Bax genes", "experiment": "Real-time PCR of anti-/pro-apoptotic genes in OGD hippocampal tissues", "conditions": "OGD and NsPLA2 treatment", "procedure": "(A) Organotypic hippocampal cultures were subjected to OGD (oxygen-glucose deprivation) for 90 mins and treated with NsPLA2. […] Total RNA was isolated from the hippocampal tissues and subjected to reverse transcription and PCR. The data was derived from 6 independent PCR (n=6).\nThus, we carried out experiments using the organotypic hippocampal cultures, in conditions where oxygen is eliminated by using the 95% N2 and 5% CO2 and glucose was deprived in cultures by using culture media without glucose."}, "[6]": {"test_system": "gene expression in ischemic brain", "experiment": "Real-time PCR quantitation of nine genes in MCAo and NsPLA2-treated brains", "type": "in vivo, rat", "conditions": "NsPLA2 treatment relative to MCAo brain", "description": "The expression of nine genes that may have important roles in mediating the neuroprotective action of NsPLA2 was quantitated by real-time PCR (FIG. 8). Specific primers were used for PCR amplification. The relative expression of each gene in the heart was obtained after normalizing against an internal control (18S ribosomal RNA) and a calibrator, in this case, the sham-operated control or MCAo brain, FIGS. 8A and B respectively, relative gene expression=1)."}, "[7]": {"experiment": "LD50 and signs of toxicity of NsPLA2"}, "[8]": {"conditions": "NsPLA2-treated vs saline-treated MCAo brain"}}, "note": "“Also recorded” adds a separate entry of the source.", "data": [{"molecule": "B1", "values": [{"measurement": "effect on infarct volume after transient ischemia", "setting": "[1]", "value": "did not significantly reduce infarct volume"}, {"measurement": "neuroprotection compared with the phospholipase A2", "setting": "[1]", "value": "less neuroprotective"}]}, {"molecule": "B2", "values": [{"measurement": "brain infarction compared to saline-treated control", "setting": "[1]", "value": "no effect"}, {"measurement": "infarct size, TTC staining of serial brain sections", "setting": "[1]", "value": "significant reduction in infarct size; also recorded: reduced the infarct size but to a lesser extent"}, {"measurement": "reduction of focal ischemia / infarct size (summary statement)", "setting": "[1]", "value": 80, "unit": "%"}, {"measurement": "ischemic damage, cellular morphology (haematoxylin and eosin)", "setting": "[2]", "value": "significantly reduced ischemic damage"}, {"measurement": "fold change, Adipose differentiation-related protein (1390383_at)", "setting": "[3]; [8]", "value": "−1.75", "unit": "fold"}, {"measurement": "fold change, CD9 antigen (1371499_at)", "setting": "[3]; [8]", "value": "−2.6", "unit": "fold"}, {"measurement": "fold change, CD44 antigen (1387952_a_at)", "setting": "[3]; [8]", "value": "−3.7", "unit": "fold"}, {"measurement": "fold change, Calcium/calmodulin-dependent protein kinase (CaM kinase) II gamma (1369993_at)", "setting": "[3]; [8]", "value": 1.74, "unit": "fold"}, {"measurement": "fold change, Chloride intracellular channel 4 (1387420_at)", "setting": "[3]; [8]", "value": "−1.9", "unit": "fold"}, {"measurement": "fold change, DNA topoisomerase I (1369421_at)", "setting": "[3]; [8]", "value": "−4.6", "unit": "fold"}, {"measurement": "fold change, I-gicerin (1369793_a_at)", "setting": "[3]; [8]", "value": "−1.75", "unit": "fold"}, {"measurement": "fold change, NOV protein (1376734_at)", "setting": "[3]; [8]", "value": 1.87, "unit": "fold"}, {"measurement": "fold change, ProSAPiP1 protein (1373057_at)", "setting": "[3]; [8]", "value": 1.74, "unit": "fold"}, {"measurement": "fold change, S100 calcium-binding protein A8 (calgranulin A) (1368494_at)", "setting": "[3]; [8]", "value": "−1.75", "unit": "fold"}, {"measurement": "fold change, S-100 related protein (1386890_at)", "setting": "[3]; [8]", "value": "−1.9", "unit": "fold"}, {"measurement": "fold change, Similar to endothelial monocyte-activating polypeptide (1375170_at)", "setting": "[3]; [8]", "value": "−1.9", "unit": "fold"}, {"measurement": "fold change, Similar to plexinB1 (1374444_at)", "setting": "[3]; [8]", "value": 2, "unit": "fold"}, {"measurement": "fold change, Similar to tropomodulin 3 (1372500_at)", "setting": "[3]; [8]", "value": "−1.75", "unit": "fold"}, {"measurement": "fold change, X transporter protein 3 (1369705_at)", "setting": "[3]; [8]", "value": "−1.75", "unit": "fold"}, {"measurement": "fold change, aldose reductase-like protein (1370902_at)", "setting": "[3]; [8]", "value": "−2.6", "unit": "fold"}, {"measurement": "fold change, angiotensinogen (1387811_at)", "setting": "[3]; [8]", "value": 1.87, "unit": "fold"}, {"measurement": "fold change, calpactin I heavy chain (1367584_at)", "setting": "[3]; [8]", "value": "−1.75", "unit": "fold"}, {"measurement": "fold change, cyclin-dependent kinase inhibitor 1A (1387391_at)", "setting": "[3]; [8]", "value": "−3", "unit": "fold"}, {"measurement": "fold change, fibulin 2 (1389533_at)", "setting": "[3]; [8]", "value": "−1.75", "unit": "fold"}, {"measurement": "fold change, gap junction protein, beta 6 (connexin 30) (1368577_at)", "setting": "[3]; [8]", "value": 1.87, "unit": "fold"}, {"measurement": "fold change, glutathione S-transferase, alpha 1 (1367774_at)", "setting": "[3]; [8]", "value": 2, "unit": "fold"}, {"measurement": "fold change, hemoglobin beta chain complex (1371102_x_at)", "setting": "[3]; [8]", "value": "−1.75", "unit": "fold"}, {"measurement": "fold change, homer, neuronal immediate early gene, 1 (1370997_at)", "setting": "[3]; [8]", "value": "−2.44", "unit": "fold"}, {"measurement": "fold change, matrix metalloproteinase 9 (1369166_at)", "setting": "[3]; [8]", "value": "−2", "unit": "fold"}, {"measurement": "fold change, microtubule-associated protein, RP/EB family, member 1 (1370792_at)", "setting": "[3]; [8]", "value": "−4.3", "unit": "fold"}, {"measurement": "fold change, moesin (1368948_at)", "setting": "[3]; [8]", "value": "−2.3", "unit": "fold"}, {"measurement": "fold change, neurogenic differentiation 1 (1387288_at)", "setting": "[3]; [8]", "value": 1.74, "unit": "fold"}, {"measurement": "fold change, nucleosome assembly protein 1-like 1 (1373473_a_at)", "setting": "[3]; [8]", "value": "−2.3", "unit": "fold"}, {"measurement": "fold change, ornithine decarboxylase antizyme inhibitor (1370575_a_at)", "setting": "[3]; [8]", "value": "−1.9", "unit": "fold"}, {"measurement": "fold change, protein disulfide isomerase related protein (calcium-binding protein) (1370007_at)", "setting": "[3]; [8]", "value": "−2", "unit": "fold"}, {"measurement": "fold change, regulator of G-protein signaling protein 2 (1368144_at)", "setting": "[3]; [8]", "value": "−2.44", "unit": "fold"}, {"measurement": "fold change, retinol binding protein 1 (1367939_at)", "setting": "[3]; [8]", "value": "−1.75", "unit": "fold"}, {"measurement": "fold change, serine (or cysteine) proteinase inhibitor, clade H, member 1 (1371310_s_at)", "setting": "[3]; [8]", "value": "−1.9", "unit": "fold"}, {"measurement": "fold change, sulfotransferase family 1A, phenol-preferring, member 1 (1370019_at)", "setting": "[3]; [8]", "value": 1.87, "unit": "fold"}, {"measurement": "fold change, syndecan 1 (1367849_at)", "setting": "[3]; [8]", "value": "−1.9", "unit": "fold"}, {"measurement": "fold change, thyrotropin releasing hormone (1368912_at)", "setting": "[3]; [8]", "value": "−3.5", "unit": "fold"}, {"measurement": "fold change, tissue inhibitor of metalloproteinase 1 (1367712_at)", "setting": "[3]; [8]", "value": "−2", "unit": "fold"}, {"measurement": "fold change, tropomyosin 1, alpha (1370288_a_at)", "setting": "[3]; [8]", "value": "−2.44", "unit": "fold"}, {"measurement": "fold change, tropomyosin 4 (1368838_at)", "setting": "[3]; [8]", "value": "−2.1", "unit": "fold"}, {"measurement": "fold change, tumor rejection antigen gp96 (1388331_at)", "setting": "[3]; [8]", "value": "−2.1", "unit": "fold"}, {"measurement": "fold change, glutathione S-transferase, alpha 1 (1367774_at)", "setting": "[3]; NsPLA2-treated vs saline-treated MCAo brain, listed as PLA2", "value": "+2.0 fold"}, {"measurement": "decrease in expression of thyrotropin releasing hormone", "setting": "[3]; after PLA2 treatment", "value": 3.5, "unit": "fold"}, {"measurement": "degree of apoptosis (TUNEL)", "setting": "[4]", "value": "greatly reduced"}, {"measurement": "systemic inflammation", "setting": "TNF-a", "value": "did not induce systemic inflammation"}, {"measurement": "Bax gene expression (real-time PCR)", "setting": "[5]", "value": "down-regulated"}, {"measurement": "Bcl-2 gene expression (real-time PCR)", "setting": "[5]", "value": "up-regulated"}, {"measurement": "Bcl-XL gene expression (real-time PCR)", "setting": "[5]", "value": "up-regulated"}, {"measurement": "expression of glutathione-S-transferase, CAM kinase II and angiotensinogen (real-time PCR)", "setting": "[6]", "value": "increased"}, {"measurement": "expression of thyrotropin releasing hormone, secreted phosphoprotein, moesin, MMP-9, TIMP-1 and calgranulin A (real-time PCR)", "setting": "[6]", "value": "decreased"}, {"measurement": "signs of toxicity", "setting": "[7]; 30 μg/200 g body weight i.v.", "value": "did not induce any signs of toxicity"}, {"measurement": "LD50", "setting": "[7]; rat, in vivo", "value": 125, "unit": "μg/200 g body weight"}]}]}
